Measured values taken from publication PMC11330527, “Structure and dimerization properties of the plant-specific copper chaperone CCH” (Scientific Reports, 2024).

B1: copper chaperone CCH (full-length CCH) from Arabidopsis (natural protein, Arabidopsis thaliana, UniProt O82089 1-120, looked up)
chain: MAQTVVLKVGMSCQGCVGAVNRVLGKMEGVESFDIDIKEQKVTVKGNVEPEAVFQTVSKTGKKTSYWPVEAEAEPKAEADPKVETVTETKTEAETKTEAKVDAKADVEPKAAEAETKPSQ
modifications: Alexa Fluor 488 NHS ester on amines (only the labeled copy in MST)
notes: Used copper-free (apo) or preloaded with Cu(I) from Cu(I)-(BCA)2; A TEV site follows the His-tag; Vector pETEV16b-CCH; also called apo-CCH; Cu(I)-CCH; source: E. coli, purified (IMAC, TEV digestion, SEC); not shown: 10xHis, N-terminal, cleaved
B2: CCHΔ, truncation mutant of CCH lacking the C-terminal extension (domain or fragment, Arabidopsis thaliana, UniProt O82089 1-70, looked up)
chain: MAQTVVLKVGMSCQGCVGAVNRVLGKMEGVESFDIDIKEQKVTVKGNVEPEAVFQTVSKTGKKTSYWPVE
modifications: also: Alexa Fluor 488 NHS ester on amines (labeled copy only)
notes: Used copper-free (apo) or preloaded with Cu(I) from Cu(I)-(BCA)2; A TEV site follows the His-tag; source: E. coli, purified (IMAC, TEV digestion, SEC); not shown: 10xHis, N-terminal, cleaved

How the values were obtained:
[1] = molecular target: the molecule itself; experiment: MST; only one copy preloaded with copper (CCH: labeled copy copper-loaded, unlabeled copper-free; CCHΔ: unlabeled copy copper-loaded, labeled copper-free); labeled chaperone 20 nM, unlabeled 0.4 to 6.25 µM; 300 mM NaCl, 50 mM HEPES, 0.05% Tween-20, pH 7.5; room temperature; one-site binding model; apparent KD; dimer to monomers
[2] = molecular target: the molecule itself; experiment: MST; both copies in the apo (copper-free) state; Alexa Fluor 488-labeled chaperone 20 nM, unlabeled chaperone 4.6 to 400 nM; 300 mM NaCl, 50 mM HEPES, 0.05% Tween-20, pH 7.5, no DTT; room temperature; one-site binding model; apparent KD; dimer to monomers

Row | Protein | Kd [1] [nM] | Kd [2] [nM]
1 | B1 | 78 ± 39 | 18 ± 6
2 | B2 | 169 ± 51 | 57 ± 9
